Measurements from patent US20230287125A1 (LEPU BIOPHARMA, published 2023).

Columns and labels:
human PD-L1-Fc protein [1] = molecular target: T1, human PD-L1-Fc protein (human, UniProt Q9NZQ7 19-238); experiment: ELISA, antibody titrated on coated human PD-L1-Fc, OD 450nm; upper right panel
T1 construct: coating antigen of the ELISAs; also called rhPD-L1-Fc; not shown: Fc

[2] = molecular target: T2, human PD-L1-his tag protein (human, UniProt Q9NZQ7 19-238); experiment: SPR (Biacore T200), mAb captured on Protein A chip, PD-L1-his injected
T2 construct: also called human PD-L1-His protein; recombinant PD-L1 protein; not shown: his tag
Experimental: The binding of the humanized antibodies to recombinant PD-L1 protein (human PD-L1-his tag) was tested by Biacore using a capture method. […] A serial dilution of human PD-L1-his tag protein was injected over captured antibody for 2 mins at a flow rate of 30 μl/min. The antigen was allowed to dissociate for 1500 s. All the experiment were carried out on a Biacore T200.

[3] = molecular target: T3, human PD-L1 over-expressed on CHOK1 cells (human, UniProt Q9NZQ7 19-290); experiment: flow cytometry (MFI) on PDL1-CHOK1 cells; lower right panel
T3 construct: whole, on cells; also called PDL1-CHOK1 cells
Experimental: (§1) To evaluate the antigen binding property, the humanized antibodies were analyzed for their binding to PD-L1 overexpressed on mammalian cells by FACS. Briefly, PDL1-CHOK1 cells were firstly incubated with 3-fold serious diluted humanized antibodies starting at 15 μg/ml at 4° C. for 40 mins. After washed by PBS, the Alexa Fluor® 647 AffiniPure Goat Anti-Human IgG (H+L) antibody was added to each well and incubated at 4° C. for 30 mins. The MFI of Alexa Fluor® 647 was evaluated by FACSCanto.

human PD-L1-Fc protein [4] = molecular target: T1, human PD-L1-Fc protein; experiment: receptor blocking ELISA: coated human PD-L1-Fc, blocked ligand biotin-labeled human PD-1-Fc (Bio-PD1), OD 450nm; lower right panel
Experimental: (§2) Briefly, microtiter plates were coated with human PD-L1-Fc protein at 0.5 μg/ml in PBS, 100 μl/well at 4° C. overnight, then blocked with 150 μl/well of 1% BSA at 37° C. for 2 hours. […] The plates were washed with PBS/Tween and then incubated with Streptavidin-HRP for 10 mins at 37° C. After washing, the plates were developed with TMB substrate and analyzed by spectrophotometer at OD 450 nm.

human PD-L1-Fc protein [5] = molecular target: T1, human PD-L1-Fc protein; experiment: receptor blocking ELISA: coated human PD-L1-Fc, blocked ligand biotin-labeled human CD80-Fc (Bio-CD80), OD 450nm; lower right panel
Experimental: as §2

[6] = molecular target: T2, human PD-L1-his tag protein; experiment: SPR (Biacore), affinity ranking, PDL1-His
human PD-L1-Fc protein [7] = molecular target: T1, human PD-L1-Fc protein; experiment: receptor blocking ELISA: coated human PD-L1-Fc, blocked ligand biotin-labeled human PD-1-Fc (Bio-PD1), OD 450nm; lower left panel (with Hu89C10H8-11)
Experimental: as §2

human PD-L1-Fc protein [8] = molecular target: T1, human PD-L1-Fc protein; experiment: ELISA, antibody titrated on coated human PD-L1-Fc, OD 450nm; lower left panel (with Hu89C10H8-13 to -16)
Experimental: (§3) To evaluate antigen binding activity, the humanized antibodies were subjected to ELISA test. Briefly, microtiter plates were coated with human PD-L1-Fc protein at 0.5 μg/ml in PBS, 100 μl/well at 4° C. overnight, then blocked with 200 μl/well of 1% BSA. Three-fold dilutions of humanized antibodies starting from 10 μg/ml were added to each well and incubated for 1 hour at 37° C. The plates were washed with PBS/Tween and then incubated with mouse-anti-human IgG Fab antibody conjugated with Horse Radish Peroxidase (HRP) for 1 hour at 37° C. After washing, the plates were developed with TMB substrate and analyzed by spectrophotometer at OD 450 nm.

[9] = molecular target: T3, human PD-L1 over-expressed on CHOK1 …; experiment: flow cytometry on PDL1-CHOK1 cells
Experimental: After washing by PBS, Alexa Fluor® 647 AffiniPure Goat Anti-Human IgG (H+L) was added to each well and incubated at 4° C. for 30 mins. Samples were washed twice with FACS buffer. The mean florescence intensity (MFI) of Alexa Fluor® 647 was evaluated by FACSCanto.

cynomolgus PD-L1 protein = cynomolgus PD-L1 protein (cynomolgus, UniProt G7PSE7 19-238); experiment: ELISA, coated cynomolgus PD-L1
Experimental: (§4) ELISA testing was carried out to evaluate the binding of chimeric antibodies to human, mouse, rat, and cynomolgus PD-L1, respectively.
(§5) Briefly, microtiter plates were coated with human, mouse, rat and cynomolgus PD-L1 proteins at 0.5 μg/ml in PBS, 100 μl/well at 4° C. overnight, then blocked with 150 μl/well of 1% BSA. Three-fold dilutions of chimeric antibodies starting from 10 μg/ml were added to each well and incubated for 1 hour at 37° C. The plates were washed with PBS/Tween and then incubate with mouse-anti-human IgG Fab antibody conjugated with Horse Radish Peroxidase (HRP) for 30 mins at 37° C. After washing, the plates were developed with TMB substrate and analyzed by spectrophotometer at OD 450 nm.

human PD-L1-Fc protein [10] = molecular target: T1, human PD-L1-Fc protein; experiment: receptor blocking ELISA: coated human PD-L1-Fc, blocked ligand biotin-labeled human CD80-Fc (Bio-CD80), OD 450nm; lower left panel (with Hu89C10H8-11)
Experimental: as §2

mouse PD-L1 protein = mouse PD-L1 protein (mouse, UniProt Q9EP73 19-239); experiment: ELISA, coated mouse PD-L1
Experimental: as §4, §5

human PD-L1-Fc protein [11] = molecular target: T1, human PD-L1-Fc protein; experiment: ELISA, antibody titrated on coated human PD-L1-Fc, OD 450nm; upper left panel (with Hu89C10H8-1 to -6)
Experimental: as §3

human PD-L1-Fc protein [12] = molecular target: T1, human PD-L1-Fc protein; experiment: ELISA, antibody titrated on coated human PD-L1-Fc, OD 450nm; upper right panel (with Hu89C10H8-7 to -12)
Experimental: as §3

human PD-L1-Fc protein [13] = molecular target: T1, human PD-L1-Fc protein; experiment: competition ELISA, coated human PD-L1-Fc, biotin-labeled human PD-1-Fc as competitor
Experimental: as §2, with “BSA.” for “BSA at 37° C. for 2 hours.”

human PD-L1-Fc protein [14] = molecular target: T1, human PD-L1-Fc protein; experiment: ELISA, coated human PD-L1 (PD-L1-Fc per paragraph 110)
Experimental: as §2, with “1% BSA.” for “1% BSA at 37° C. for 2 hours.”, “with Mouse-anti-human IgG Fab antibody conjugated with Horse Radish Peroxidase (HRP)” for “with Streptavidin-HRP”, “for 30” for “for 10”
as §5

rat PD-L1 protein = rat PD-L1 protein (rat, UniProt D4AE25 19-239); experiment: ELISA, coated rat PD-L1
Experimental: as §4, §5

[15] = molecular target: T3, human PD-L1 over-expressed on CHOK1 …; experiment: flow cytometry (MFI) on PDL1-CHOK1 cells; lower right panel (with the Hu89C10H8 antibodies)
Experimental: as §1

human PD-L1-Fc protein [16] = molecular target: T1, human PD-L1-Fc protein; experiment: receptor blocking ELISA: coated human PD-L1-Fc, blocked ligand biotin-labeled human CD80-Fc (Bio-CD80), OD 450nm; lower right panel (with Hu89C10H8-12)
Experimental: as §2

human PD-L1-Fc protein [17] = molecular target: T1, human PD-L1-Fc protein; experiment: receptor blocking ELISA: coated human PD-L1-Fc, blocked ligand biotin-labeled human CD80-Fc (Bio-CD80), OD 450nm; upper left panel (with Hu89C10H8-4)
Experimental: as §2

human PD-L1-Fc protein [18] = molecular target: T1, human PD-L1-Fc protein; experiment: receptor blocking ELISA: coated human PD-L1-Fc, blocked ligand biotin-labeled human PD-1-Fc (Bio-PD1), OD 450nm; upper right panel (with Hu89C10H8-7)
Experimental: as §2

human PD-L1-Fc protein [19] = molecular target: T1, human PD-L1-Fc protein; experiment: receptor blocking ELISA: coated human PD-L1-Fc, blocked ligand biotin-labeled human CD80-Fc (Bio-CD80), OD 450nm; upper right panel (with Hu89C10H8-7)
Experimental: as §2

[20] = molecular target: T2, human PD-L1-his tag protein; experiment: SPR (Biacore T200), mAb captured on Protein A chip, PD-L1-his injected; remark: listed apart in the source
Experimental: A serial dilution of human PD-L1-his tag protein was injected over captured antibody for 2 mins at a flow rate of 30 μl/min. The antigen was allowed to dissociate for 480-1500 s. All the experiment were carried out on a Biacore T200. Data analysis was carried out using Biacore T200 evaluation software.

human PD-L1-Fc protein [21] = molecular target: T1, human PD-L1-Fc protein; experiment: receptor blocking ELISA: coated human PD-L1-Fc, blocked ligand biotin-labeled human PD-1-Fc (Bio-PD1), OD 450nm; upper left panel (with Hu89C10H8-4)
Experimental: as §2

T3 sequence (Q9NZQ7 19-290): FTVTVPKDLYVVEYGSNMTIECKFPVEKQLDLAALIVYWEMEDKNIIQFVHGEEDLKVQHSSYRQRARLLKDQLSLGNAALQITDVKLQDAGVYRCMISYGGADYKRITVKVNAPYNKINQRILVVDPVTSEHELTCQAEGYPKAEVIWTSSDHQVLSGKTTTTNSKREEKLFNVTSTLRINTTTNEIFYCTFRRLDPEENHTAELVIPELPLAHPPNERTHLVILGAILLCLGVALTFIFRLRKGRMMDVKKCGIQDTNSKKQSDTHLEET
T2 sequence (Q9NZQ7 19-238 limits assumed): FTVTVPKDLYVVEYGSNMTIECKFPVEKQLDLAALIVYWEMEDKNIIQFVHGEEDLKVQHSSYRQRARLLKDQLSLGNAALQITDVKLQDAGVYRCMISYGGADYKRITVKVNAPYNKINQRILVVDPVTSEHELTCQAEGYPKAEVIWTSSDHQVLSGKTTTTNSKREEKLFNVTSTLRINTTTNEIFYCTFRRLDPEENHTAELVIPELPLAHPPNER
T1 sequence (Q9NZQ7 19-238 limits assumed): as above
Chain of mouse PD-L1 protein (Q9EP73 19-239 limits assumed): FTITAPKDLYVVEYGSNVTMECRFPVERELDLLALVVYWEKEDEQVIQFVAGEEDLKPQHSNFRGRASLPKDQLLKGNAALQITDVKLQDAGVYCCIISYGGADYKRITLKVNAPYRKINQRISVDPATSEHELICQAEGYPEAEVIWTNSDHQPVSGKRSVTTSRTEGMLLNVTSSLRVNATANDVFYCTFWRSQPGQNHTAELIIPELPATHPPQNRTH
Chain of rat PD-L1 protein (D4AE25 entry or part of it limits assumed): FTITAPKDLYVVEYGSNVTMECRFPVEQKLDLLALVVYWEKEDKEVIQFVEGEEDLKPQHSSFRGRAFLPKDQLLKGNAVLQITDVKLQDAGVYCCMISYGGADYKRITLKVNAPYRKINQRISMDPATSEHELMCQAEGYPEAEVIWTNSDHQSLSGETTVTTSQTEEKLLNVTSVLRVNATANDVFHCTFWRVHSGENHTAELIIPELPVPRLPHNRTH
Chain of cynomolgus PD-L1 protein (G7PSE7 entry or part of it): as the sequence (Q9NZQ7 19-238 limits assumed) above, with A33T, A34S, S62N, R68Q, Q82R, F173L, T185A, T192I, H215L counted along it

B1: Hu89C10H8-12 (antibody, V domains shown)
VH: EVQLVESGGGLVKPGGSLRLSCAASGFTFSNYWMTWIRQAPGKGLEWVASITNTGSSTFYPDSVKGRFTISRDNAKSSLYLQMNSLRAEDTAVYYCTRDTTIAPFDYWGQGTMVTVSS
VL: DIQMTQSPSSLSASVGDRVTITCKASQNLNEYLNWYQQKPGKAPKRLIYKTNTLQAGIPSRFSGSGSGIDYTLTISSLQPEDFATYYCSQYNSGNTFGQGTKLEIK
notes: humanized
- EC50 (human PD-L1-Fc protein [1]): 0.00703 µg/mL
- Kd [2]: 0.0952 nM
- koff [2]: 5.59e-05 s⁻¹
- kon [2]: 587000 M⁻¹ s⁻¹
- EC50 [3]: 0.131 nM
- IC50 (human PD-L1-Fc protein [4]): 0.0891 µg/mL
- IC50 (human PD-L1-Fc protein [5]): 0.284 µg/mL
- Kd [6]: 0.0968 nM
- koff [6]: 7.04e-05 s⁻¹
- kon [6]: 727000 M⁻¹ s⁻¹

B2: 89C10H8 chimeric mAb (antibody, V domains shown)
VH: EVQLVESGGGLVQPGRSLTLSCVASGFTFSNYWMTWIRQAPGKGLEWVASITNTGSSTFYPDSVKGRFTISRDNTRSTLFLQINSLRSEDTATYYCTRDTTIAPFDYWGQGVMVTVSS
VL: DIQMTQSPSFLSASVGDRVTITCKASQNLNEYLNWYQQKLGEAPKRLIYKTNTLQAGIPSRFSGSGSGIDYTLTISSLQPEDVATYFCSQYNSGNTFGAGTKLELK
notes: chimeric mAb of the hybridoma clone; also called 89C10H8-chimera
- IC50 (human PD-L1-Fc protein [7]): 0.133 µg/mL
- EC50 (human PD-L1-Fc protein [8]): 0.0126 µg/mL
- EC50 [9]: 0.17 nM
- EC50 (cynomolgus PD-L1 protein): 0.00677 µg/mL
- IC50 (human PD-L1-Fc protein [10]): 0.434 µg/mL
- binding result (mouse PD-L1 protein): no binding (tested: dilutions starting from 10 µg/ml)
- EC50 (human PD-L1-Fc protein [11]): 0.012 µg/mL
- EC50 (human PD-L1-Fc protein [12]): 0.0157 µg/mL
- IC50 (human PD-L1-Fc protein [13]): 0.13 µg/mL
- EC50 (human PD-L1-Fc protein [14]): 0.00811 µg/mL
- binding result (rat PD-L1 protein): no binding (tested: dilutions starting from 10 µg/ml)
- EC50 [15]: 0.118 nM
- IC50 (human PD-L1-Fc protein [16]): 0.382 µg/mL
- IC50 (human PD-L1-Fc protein [17]): 0.432 µg/mL
- IC50 (human PD-L1-Fc protein [18]): 0.126 µg/mL
- IC50 (human PD-L1-Fc protein [19]): 0.438 µg/mL
- Kd [20]: 0.0415 nM
- koff [20]: 6.64e-05 s⁻¹
- kon [20]: 1.6e+06 M⁻¹ s⁻¹
- IC50 (human PD-L1-Fc protein [21]): 0.12 µg/mL
